From patent US20240033343A1
Where two headings read alike, the source gives them in different places.

Columns and labels:
[1] = target: SARS-CoV-2 Sclamp (SARS-CoV-2) (UniProt P0DTC2); assay: ELISA on purified antigen, antibody titrated
[2] = target: SARS-CoV-2-foldon (SARS-CoV-2) (UniProt P0DTC2); assay: ELISA on purified antigen, antibody titrated
[3] = target: SARS-CoV-2 Sclamp (SARS-CoV-2) (UniProt P0DTC2)
[4] = target: SARS-CoV-2 Sclamp (SARS-CoV-2) (UniProt P0DTC2); assay: characterization of the lead candidate; ELISA per paragraph 282

Substance	EC50 (read off the curve) [1]	EC50 (read off the curve) [2]	Kd [3]	Kd [4]
DH1047 (antibody)	0.3 nM	0.4 nM		
huCR3022 (antibody)	0.6 nM	0.6 nM		
S309 (antibody)			0.08 nM	
CB6 (antibody)			0.15 nM	
CR3022 (antibody)			0.13 nM	0.3 nM
